Patent US20230293638A1 (Eli Lilly, published 2023)
Where a chain is given by its changes, count along the chain named. Numbered stars: 1 amine (or outer) side, 2 acyl side, 3 side chain; on linkers, the order of the positions; unused ones are H or OH. Square brackets hold non-standard residues; d marks the D form. Side chains are listed from the residue outwards. Ends that are not written are not given here. * marks the point of attachment. C20 diacid = O=C(O)CCCCCCCCCCCCCCCCCCC(=O)*; C18 diacid = O=C(O)CCCCCCCCCCCCCCCCC(=O)*; γGlu = O=C(O)[C@H](CCC(=O)[*:2])N[*:1]; αMeL = CC(C)C[C@](C)(N)C(=O)O; αMeK = C[C@](N)(CCCCN)C(=O)O; αMeP = C[C@@]1(C(=O)O)CCCN1; AEEA = NCCOCCOCC(=O)O; Aib = CC(C)(N)C(=O)O

B1: Peptide 22 (peptide)
peptide: Y[Aib]EGTFTSDYSI[αMeL]LDEK([AEEA-AEEA-γGlu-C20 diacid])AQ[αMeK]AFIEYLLE[Aib]GPSSGAPPPS-NH2
modifications: N-terminus assumed
SMILES: CC[C@H](C)[C@H](NC(=O)[C@H](Cc1ccccc1)NC(=O)[C@H](C)NC(=O)[C@](C)(CCCCN)NC(=O)[C@H](CCC(N)=O)NC(=O)[C@H](C)NC(=O)[C@H](CCCCNC(=O)COCCOCCNC(=O)COCCOCCNC(=O)CC[C@H](NC(=O)CCCCCCCCCCCCCCCCCCC(=O)O)C(=O)O)NC(=O)[C@H](CCC(=O)O)NC(=O)[C@H](CC(=O)O)NC(=O)[C@H](CC(C)C)NC(=O)[C@](C)(CC(C)C)NC(=O)[C@@H](NC(=O)[C@H](CO)NC(=O)[C@H](Cc1ccc(O)cc1)NC(=O)[C@H](CC(=O)O)NC(=O)[C@H](CO)NC(=O)[C@@H](NC(=O)[C@H](Cc1ccccc1)NC(=O)[C@@H](NC(=O)CNC(=O)[C@H](CCC(=O)O)NC(=O)C(C)(C)NC(=O)[C@@H](N)Cc1ccc(O)cc1)[C@@H](C)O)[C@@H](C)O)[C@@H](C)CC)C(=O)N[C@@H](CCC(=O)O)C(=O)N[C@@H](Cc1ccc(O)cc1)C(=O)N[C@@H](CC(C)C)C(=O)N[C@@H](CC(C)C)C(=O)N[C@@H](CCC(=O)O)C(=O)NC(C)(C)C(=O)NCC(=O)N1CCC[C@H]1C(=O)N[C@@H](CO)C(=O)N[C@@H](CO)C(=O)NCC(=O)N[C@@H](C)C(=O)N1CCC[C@H]1C(=O)N1CCC[C@H]1C(=O)N1CCC[C@H]1C(=O)N[C@@H](CO)C(N)=O
B2: Peptide 197 (peptide)
peptide: Y[αMeP]EGTFTSDYSILLDEK([AEEA-AEEA-γGlu-C18 diacid])AQQAFIEYLIEGGPSSG-NH2
modifications: N-terminus assumed
SMILES: CC[C@H](C)[C@H](NC(=O)[C@H](CC(C)C)NC(=O)[C@H](Cc1ccc(O)cc1)NC(=O)[C@H](CCC(=O)O)NC(=O)[C@@H](NC(=O)[C@H](Cc1ccccc1)NC(=O)[C@H](C)NC(=O)[C@H](CCC(N)=O)NC(=O)[C@H](CCC(N)=O)NC(=O)[C@H](C)NC(=O)[C@H](CCCCNC(=O)COCCOCCNC(=O)COCCOCCNC(=O)CC[C@H](NC(=O)CCCCCCCCCCCCCCCCC(=O)O)C(=O)O)NC(=O)[C@H](CCC(=O)O)NC(=O)[C@H](CC(=O)O)NC(=O)[C@H](CC(C)C)NC(=O)[C@H](CC(C)C)NC(=O)[C@@H](NC(=O)[C@H](CO)NC(=O)[C@H](Cc1ccc(O)cc1)NC(=O)[C@H](CC(=O)O)NC(=O)[C@H](CO)NC(=O)[C@@H](NC(=O)[C@H](Cc1ccccc1)NC(=O)[C@@H](NC(=O)CNC(=O)[C@H](CCC(=O)O)NC(=O)[C@]1(C)CCCN1C(=O)[C@@H](N)Cc1ccc(O)cc1)[C@@H](C)O)[C@@H](C)O)[C@@H](C)CC)[C@@H](C)CC)C(=O)N[C@@H](CCC(=O)O)C(=O)NCC(=O)NCC(=O)N1CCC[C@H]1C(=O)N[C@@H](CO)C(=O)N[C@@H](CO)C(=O)NCC(N)=O
B3: Peptide 172 (peptide)
peptide: YXEGTXTSDHSIXLDXKAQXTFIXYLIEGGPSSGAPPPS
modifications: Aib2; αMeF(2F)6; αMeL13; Dab16; K17((2-[2-(2-Amino-ethoxy)-ethoxy]-acetyl)2-(γGlu)-CO-(CH2)18-CO2H); Aib20; D-Glu24; C-terminal NH2
B4: Peptide 204 (peptide)
peptide: B3 peptide with H10X, X16E, T21E
modifications: Aib2; αMeF(2F)6; 4Pal10; αMeL13; K17((2-[2-(2-Amino-ethoxy)-ethoxy]-acetyl)2-(γGlu)-CO-(CH2)16-CO2H); Aib20; D-Glu24; C-terminal NH2
B5: Peptide 178 (peptide)
peptide: B3 peptide with X16E, T21H
modifications: Aib2; αMeF(2F)6; αMeL13; K17((2-[2-(2-Amino-ethoxy)-ethoxy]-acetyl)2-(γGlu)-CO-(CH2)14-CO2H); Aib20; D-Glu24; C-terminal NH2
B6: Peptide 202 (peptide)
peptide: B3 peptide with H10X, X16K, T21E
modifications: Aib2; αMeF(2F)6; 4Pal10; αMeL13; K17((2-[2-(2-Amino-ethoxy)-ethoxy]-acetyl)-(γGlu)-(2-[2-(2-Amino-ethoxy)-ethoxy]-acetyl)-CO-(CH2)18-CO2H); Aib20; D-Glu24; C-terminal NH2
B7: Peptide 187 (peptide)
peptide: B3 peptide with H10Q, X16E, T21E
modifications: Aib2; αMeF(2F)6; αMeL13; K17((2-[2-(2-Amino-ethoxy)-ethoxy]-acetyl)2-(γGlu)-CO-(CH2)18-CO2H); Aib20; D-Glu24; C-terminal NH2
B8: Peptide 205 (peptide)
peptide: B3 peptide with H10X, X16E, T21E
modifications: Aib2; αMeF(2F)6; 4Pal10; αMeL13; K17((2-[2-(2-Amino-ethoxy)-ethoxy]-acetyl)2-CO-(CH2)16-CO2H); Aib20; D-Glu24; C-terminal NH2
B9: Peptide 182 (peptide)
peptide: B3 peptide with H10X, X16E, T21E
modifications: Aib2; αMeF(2F)6; 4Pal10; αMeL13; K17((2-[2-(2-Amino-ethoxy)-ethoxy]-acetyl)2-(γGlu)-CO-(CH2)18-CO2H); Aib20; D-Glu24; C-terminal NH2
B10: Peptide 176 (peptide)
peptide: B3 peptide with X16E
modifications: Aib2; αMeF(2F)6; αMeL13; K17((2-[2-(2-Amino-ethoxy)-ethoxy]-acetyl)2-(εK)-CO-(CH2)16-CO2H); Aib20; D-Glu24; C-terminal NH2
B11: Peptide 181 (peptide)
peptide: B3 peptide with H10X, X16E, T21E
modifications: Aib2; αMeF(2F)6; 3Pal10; αMeL13; K17((2-[2-(2-Amino-ethoxy)-ethoxy]-acetyl)2-(γGlu)-CO-(CH2)18-CO2H); Aib20; D-Glu24; C-terminal NH2

Biological target: human GLP-1 receptor (human, UniProt P43220 24-463)
Test: cell-based or functional assay

Binder | hGLPIR cAMP EC50 ratio
B1 | 0.29
B2 | 0.189
B3 | 0.038
B4 | 0.689
B5 | 0.00349
B6 | 0.712
B7 | 0.702
B8 | 1.46
B9 | 0.873
B10 | 0.0427
B11 | 0.718
